Where two headings read alike, the source gives them in different places.
Key:
[1] = molecular target: QL9/L^d complex on the surface of T2-L^d cells (UniProt Q60597); assay: radioligand binding
[2] = molecular target: biotinylated L^d–QL9 complex (immobilised on the chip) (UniProt Q60597); assay: SPR
[3] = molecular target: 2C scTCR 102/55 double mutant (αS102A, βT55A) (mouse); assay: SPR
[4] = molecular target: 2C single-chain TCR (scTCR), wild-type, thioredoxin fusion (mouse); assay: SPR
[5] = molecular target: 2C scTCR 102/55 double mutant (αS102A, βT55A) (mouse); assay: SPR; remark: listed apart in the source

In the case of “2C scTCR 102/55 double mutant (αS102A, βT55A)”, the fold better than wild-type (IC50 ratio) [1] is reported as 2.3 fold and the Kd [2] is reported as 700 nM.

“2C scTCR 102/56 double mutant (αS102A, βE56A)” was tested, and the ΔΔG against wild-type [1] was -0.32 kcal/mol.

Work on 2C scTCR αS51P mutant (Vα3.2-like) yielded a fold reduced against wild-type (IC50 ratio) [1] of 15 fold.

2C scTCR αS102A mutant was tested, and the ΔΔG against wild-type [1] was -0.31 kcal/mol.

In the case of 2C scTCR βE56A mutant, the ΔΔG against wild-type [1] is reported as -0.11 kcal/mol.

2C scTCR βE56K mutant gave a ΔΔG against wild-type [1] of 1.06 kcal/mol.

Work on 2C scTCR βT55A mutant yielded a ΔΔG against wild-type [1] of -0.23 kcal/mol.

“2C single-chain TCR (scTCR), wild-type, thioredoxin fusion” showed a Kd [2] of 1900 nM.

“purified soluble L^d–QL9 complex (from UniProt Q60597 41-1023) (peptide-MHC)” showed a Kd [3] of 1200 nM, a Kd [4] of 1900 nM and a Kd [5] of 2400 nM. For the same substance, the koff of wild-type over koff of 102/55 (fold faster) [5] was 3.2 fold and the kon of wild-type over kon of 102/55 (fold faster) [5] was 2.4 fold.

— PMC2192906
